Values of other authors as cited in publication PMC4074225.

Biological target: PCNA (Homo sapiens) (UniProt P12004)
Test: SPR

Sequence of UniProt P12004 (P12004 whole entry): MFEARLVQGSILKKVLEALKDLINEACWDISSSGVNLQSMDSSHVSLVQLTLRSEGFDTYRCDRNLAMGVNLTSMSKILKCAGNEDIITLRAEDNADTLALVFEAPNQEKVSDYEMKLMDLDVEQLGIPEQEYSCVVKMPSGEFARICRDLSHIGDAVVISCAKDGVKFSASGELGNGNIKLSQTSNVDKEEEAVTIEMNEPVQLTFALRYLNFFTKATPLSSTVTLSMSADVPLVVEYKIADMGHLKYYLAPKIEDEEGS

In the case of “DNA polymerase eta 694-713 (from UniProt Q9Y253)”, the Kd is listed as 400 nM.
